Test results reported in PMC2991585.

Target: actin filament (barbed end) (UniProt P68135)
Experiment: seeded pyrene-actin polymerization

## CPαβ(ΔC34) (from UniProt P47753 1-286; P47757-2 1-272) (complex)
  Kd: 0.0332 µM
